Common to all, as to assay: UV-vis
Conditions in all cases: room temperature; 0.4 M NaCl; 6-mix buffer (citric acid 5.48 mM; ADA 1.84 mM; MOPS 4.16 mM; TAPS 5.00 mM; CHES 3.24 mM; CAPS 5.56 mM); dark (unphotolyzed) state, lipid-reconstituted

Data set [1] concerns the target Asp250 (UniProt position 250, TYTIADVSSKV).
In data set [2] the target is Glu10 (UniProt position 10, GNATFENYIGL).
Data set [3] deals with Asp115 (UniProt position 115, LNWLIDVPMLL).

The pKa is the negative logarithm of the acid dissociation constant. A low value points to a group that gives up its proton readily. Regarding “Sodium pump rhodopsin IaNaR H225A (Indibacter alkaliphilus; H225A)”, the pKa in data set [1] is 3.0; in data set [2] it was 4.3; in data set [3] it was 5.8.

Consider “Sodium pump rhodopsin IaNaR D250N (Indibacter alkaliphilus; D250N)”, for which the values for the pKa in data set [2] and in data set [3] were 2.8 and 5.0, respectively.

As to “Sodium pump rhodopsin IaNaR D115N (Indibacter alkaliphilus; D115N)”, the pKa in data set [1] is 2.5; in data set [2], 4.6.

As to “Sodium pump rhodopsin IaNaR E159A (Indibacter alkaliphilus; E159A)”, the pKa is listed as 3.3 in data set [1] and 5.6 in data set [3].

Take “Sodium pump rhodopsin IaNaR (Indibacter alkaliphilus)”: the values for the pKa in data set [1], in data set [2] and in data set [3] were 3.2, 4.1 and 5.5, respectively.

As to “Sodium pump rhodopsin IaNaR E10Q/E159Q/R242Q (Indibacter alkaliphilus; E10Q;E159Q;R242Q)”, the pKa in data set [1] amounted to 3.6; in data set [3], 7.1.

In the case of “Sodium pump rhodopsin IaNaR E159Q (Indibacter alkaliphilus; E159Q)”, the pKa was 3.1 in data set [1] and 3.7 in data set [2].

Turning to “Sodium pump rhodopsin IaNaR R242Q (Indibacter alkaliphilus; R242Q)”, the pKa in data set [2] stood at 4.4; in data set [3], 6.4.

Regarding “Sodium pump rhodopsin IaNaR E10Q/R242Q (Indibacter alkaliphilus; E10Q;R242Q)”, the pKa is on record as 3.8 in data set [1] and 5.7 in data set [3].

These data come from paper PMC10679507.
